# Experimental data as given in patent publication US20210139559A1 (XL PROTEIN, published 2021).
# B1: PAS(200)-PDGFRαD123-VEGFR1D2/R2D3 (receptor)
# chain: HHHHHHASPAAPAPASPAAPAPSAPAASPAAPAPASPAAPAPSAPAASPAAPAPASPAAPAPSAPAASPAAPAPASPAAPAPSAPAASPAAPAPASPAAPAPSAPAASPAAPAPASPAAPAPSAPAASPAAPAPASPAAPAPSAPAASPAAPAPASPAAPAPSAPAASPAAPAPASPAAPAPSAPAASPAAPAPASPAAPAPSAPAQLSLPSILPNENEKVVQLNSSFSLRCFGESEVSWQYPMSEEESSDVEIRNEENNSGLFVTVLEVSSASAAHTGLYTCYYNHTQTEENELEGRHIYIYVPDPDVAFVPLGMTDYLVIVEDDDSAIIPCRTTDPETPVTLHNSEGVVPASYDSRQGFNGTFTVGPYICEATVKGKKFQTIPFNVYALKATSELDLEMEALKTVYKSGETIVVTCAVFNNEVVDLQWTYPGEVKGKGITMLEEIKVPSIKLVYTLTVPEATVKDSGDYECAARQATREVKEMKKVTISVHEKGSDTGRPFVEMYSEIPEIIHMTEGRELVIPCRVTSPNITVTLKKFPLDTLIPDGKRIIWDSRKGFIISNATYKEIGLLTCEATVNGHLYKTNYLTHRQTNTIIDVVLSPSHGIELSVGEKLVLNCTARTELNVGIDFNWEYPSSKHQHKKLVNRDLKTQSGSEMKKFLSTLTIDGVTRSDQGLYTCAASSGLMTKKNSTFVRVHEK
# notes: the tag stands at the N-terminus; also called EPS1110P
# B2: PDGFRαD123-PAS(600)-VEGFR1D2/R2D3 (receptor)
# chain: QLSLPSILPNENEKVVQLNSSFSLRCFGESEVSWQYPMSEEESSDVEIRNEENNSGLFVTVLEVSSASAAHTGLYTCYYNHTQTEENELEGRHIYIYVPDPDVAFVPLGMTDYLVIVEDDDSAIIPCRTTDPETPVTLHNSEGVVPASYDSRQGFNGTFTVGPYICEATVKGKKFQTIPFNVYALKATSELDLEMEALKTVYKSGETIVVTCAVFNNEVVDLQWTYPGEVKGKGITMLEEIKVPSIKLVYTLTVPEATVKDSGDYECAARQATREVKEMKKVTISVHEKGASPAAPAPASPAAPAPSAPAASPAAPAPASPAAPAPSAPAASPAAPAPASPAAPAPSAPAASPAAPAPASPAAPAPSAPAASPAAPAPASPAAPAPSAPAASPAAPAPASPAAPAPSAPAASPAAPAPASPAAPAPSAPAASPAAPAPASPAAPAPSAPAASPAAPAPASPAAPAPSAPAASPAAPAPASPAAPAPSAPAASPAAPAPASPAAPAPSAPAASPAAPAPASPAAPAPSAPAASPAAPAPASPAAPAPSAPAASPAAPAPASPAAPAPSAPAASPAAPAPASPAAPAPSAPAASPAAPAPASPAAPAPSAPAASPAAPAPASPAAPAPSAPAASPAAPAPASPAAPAPSAPAASPAAPAPASPAAPAPSAPAASPAAPAPASPAAPAPSAPAASPAAPAPASPAAPAPSAPAASPAAPAPASPAAPAPSAPAASPAAPAPASPAAPAPSAPAASPAAPAPASPAAPAPSAPAASPAAPAPASPAAPAPSAPAASPAAPAPASPAAPAPSAPAASPAAPAPASPAAPAPSAPAASPAAPAPASPAAPAPSAPAASPAAPAPASPAAPAPSAPAASPAAPAPASPAAPAPSAPAASDTGRPFVEMYSEIPEIIHMTEGRELVIPCRVTSPNITVTLKKFPLDTLIPDGKRIIWDSRKGFIISNATYKEIGLLTCEATVNGHLYKTNYLTHRQTNTIIDVVLSPSHGIELSVGEKLVLNCTARTELNVGIDFNWEYPSSKHQHKKLVNRDLKTQSGSEMKKFLSTLTIDGVTRSDQGLYTCAASSGLMTKKNSTFVRVHEKHHHHHH
# notes: also called EPS1113P
# B3: PDGFRαD123-(GGGGS)3-PAS(600)-(GGGGS)3-VEGFR1D2/R2D3 (receptor)
# chain: QLSLPSILPNENEKVVQLNSSFSLRCFGESEVSWQYPMSEEESSDVEIRNEENNSGLFVTVLEVSSASAAHTGLYTCYYNHTQTEENELEGRHIYIYVPDPDVAFVPLGMTDYLVIVEDDDSAIIPCRTTDPETPVTLHNSEGVVPASYDSRQGFNGTFTVGPYICEATVKGKKFQTIPFNVYALKATSELDLEMEALKTVYKSGETIVVTCAVFNNEVVDLQWTYPGEVKGKGITMLEEIKVPSIKLVYTLTVPEATVKDSGDYECAARQATREVKEMKKVTISVHEKGGGGGSGGGGSGGGGSASPAAPAPASPAAPAPSAPAASPAAPAPASPAAPAPSAPAASPAAPAPASPAAPAPSAPAASPAAPAPASPAAPAPSAPAASPAAPAPASPAAPAPSAPAASPAAPAPASPAAPAPSAPAASPAAPAPASPAAPAPSAPAASPAAPAPASPAAPAPSAPAASPAAPAPASPAAPAPSAPAASPAAPAPASPAAPAPSAPAASPAAPAPASPAAPAPSAPAASPAAPAPASPAAPAPSAPAASPAAPAPASPAAPAPSAPAASPAAPAPASPAAPAPSAPAASPAAPAPASPAAPAPSAPAASPAAPAPASPAAPAPSAPAASPAAPAPASPAAPAPSAPAASPAAPAPASPAAPAPSAPAASPAAPAPASPAAPAPSAPAASPAAPAPASPAAPAPSAPAASPAAPAPASPAAPAPSAPAASPAAPAPASPAAPAPSAPAASPAAPAPASPAAPAPSAPAASPAAPAPASPAAPAPSAPAASPAAPAPASPAAPAPSAPAASPAAPAPASPAAPAPSAPAASPAAPAPASPAAPAPSAPAASPAAPAPASPAAPAPSAPAASPAAPAPASPAAPAPSAPAASPAAPAPASPAAPAPSAPAAGGGGSGGGGSGGGGSSDTGRPFVEMYSEIPEIIHMTEGRELVIPCRVTSPNITVTLKKFPLDTLIPDGKRIIWDSRKGFIISNATYKEIGLLTCEATVNGHLYKTNYLTHRQTNTIIDVVLSPSHGIELSVGEKLVLNCTARTELNVGIDFNWEYPSSKHQHKKLVNRDLKTQSGSEMKKFLSTLTIDGVTRSDQGLYTCAASSGLMTKKNSTFVRVHEKHHHHHH
# notes: also called EPS1114P
# B4: VEGFR1D2/R2D3-(GGGGS)3-PAS(600)-(GGGGS)3-PDGFRαD123 (receptor)
# chain: SDTGRPFVEMYSEIPEIIHMTEGRELVIPCRVTSPNITVTLKKFPLDTLIPDGKRIIWDSRKGFIISNATYKEIGLLTCEATVNGHLYKTNYLTHRQTNTIIDVVLSPSHGIELSVGEKLVLNCTARTELNVGIDFNWEYPSSKHQHKKLVNRDLKTQSGSEMKKFLSTLTIDGVTRSDQGLYTCAASSGLMTKKNSTFVRVHEKGGGGSGGGGSGGGGSASPAAPAPASPAAPAPSAPAASPAAPAPASPAAPAPSAPAASPAAPAPASPAAPAPSAPAASPAAPAPASPAAPAPSAPAASPAAPAPASPAAPAPSAPAASPAAPAPASPAAPAPSAPAASPAAPAPASPAAPAPSAPAASPAAPAPASPAAPAPSAPAASPAAPAPASPAAPAPSAPAASPAAPAPASPAAPAPSAPAASPAAPAPASPAAPAPSAPAASPAAPAPASPAAPAPSAPAASPAAPAPASPAAPAPSAPAASPAAPAPASPAAPAPSAPAASPAAPAPASPAAPAPSAPAASPAAPAPASPAAPAPSAPAASPAAPAPASPAAPAPSAPAASPAAPAPASPAAPAPSAPAASPAAPAPASPAAPAPSAPAASPAAPAPASPAAPAPSAPAASPAAPAPASPAAPAPSAPAASPAAPAPASPAAPAPSAPAASPAAPAPASPAAPAPSAPAASPAAPAPASPAAPAPSAPAASPAAPAPASPAAPAPSAPAASPAAPAPASPAAPAPSAPAASPAAPAPASPAAPAPSAPAASPAAPAPASPAAPAPSAPAASPAAPAPASPAAPAPSAPAASPAAPAPASPAAPAPSAPAAGGGGSGGGGSGGGGSQLSLPSILPNENEKVVQLNSSFSLRCFGESEVSWQYPMSEEESSDVEIRNEENNSGLFVTVLEVSSASAAHTGLYTCYYNHTQTEENELEGRHIYIYVPDPDVAFVPLGMTDYLVIVEDDDSAIIPCRTTDPETPVTLHNSEGVVPASYDSRQGFNGTFTVGPYICEATVKGKKFQTIPFNVYALKATSELDLEMEALKTVYKSGETIVVTCAVFNNEVVDLQWTYPGEVKGKGITMLEEIKVPSIKLVYTLTVPEATVKDSGDYECAARQATREVKEMKKVTISVHEKGHHHHHH
# notes: also called EPS1115P
# B5: PDGFRαD123-PAS(300)-VEGFR1D2/R2D3 (receptor)
# chain: QLSLPSILPNENEKVVQLNSSFSLRCFGESEVSWQYPMSEEESSDVEIRNEENNSGLFVTVLEVSSASAAHTGLYTCYYNHTQTEENELEGRHIYIYVPDPDVAFVPLGMTDYLVIVEDDDSAIIPCRTTDPETPVTLHNSEGVVPASYDSRQGFNGTFTVGPYICEATVKGKKFQTIPFNVYALKATSELDLEMEALKTVYKSGETIVVTCAVFNNEVVDLQWTYPGEVKGKGITMLEEIKVPSIKLVYTLTVPEATVKDSGDYECAARQATREVKEMKKVTISVHEKGASPAAPAPASPAAPAPSAPAASPAAPAPASPAAPAPSAPAASPAAPAPASPAAPAPSAPAASPAAPAPASPAAPAPSAPAASPAAPAPASPAAPAPSAPAASPAAPAPASPAAPAPSAPAASPAAPAPASPAAPAPSAPAASPAAPAPASPAAPAPSAPAASPAAPAPASPAAPAPSAPAASPAAPAPASPAAPAPSAPAASPAAPAPASPAAPAPSAPAASPAAPAPASPAAPAPSAPAASPAAPAPASPAAPAPSAPAASPAAPAPASPAAPAPSAPAASPAAPAPASPAAPAPSAPASDTGRPFVEMYSEIPEIIHMTEGRELVIPCRVTSPNITVTLKKFPLDTLIPDGKRIIWDSRKGFIISNATYKEIGLLTCEATVNGHLYKTNYLTHRQTNTIIDVVLSPSHGIELSVGEKLVLNCTARTELNVGIDFNWEYPSSKHQHKKLVNRDLKTQSGSEMKKFLSTLTIDGVTRSDQGLYTCAASSGLMTKKNSTFVRVHEKHHHHHH
# notes: Expressed in CHO-3E7 cells, purified over a Ni column; also called EPS1103P
# B6: PAS(200)-VEGFR1D2/R2D3-PDGFRαD123 (receptor)
# chain: HHHHHHASPAAPAPASPAAPAPSAPAASPAAPAPASPAAPAPSAPAASPAAPAPASPAAPAPSAPAASPAAPAPASPAAPAPSAPAASPAAPAPASPAAPAPSAPAASPAAPAPASPAAPAPSAPAASPAAPAPASPAAPAPSAPAASPAAPAPASPAAPAPSAPAASPAAPAPASPAAPAPSAPAASPAAPAPASPAAPAPSAPASDTGRPFVEMYSEIPEIIHMTEGRELVIPCRVTSPNITVTLKKFPLDTLIPDGKRIIWDSRKGFIISNATYKEIGLLTCEATVNGHLYKTNYLTHRQTNTIIDVVLSPSHGIELSVGEKLVLNCTARTELNVGIDFNWEYPSSKHQHKKLVNRDLKTQSGSEMKKFLSTLTIDGVTRSDQGLYTCAASSGLMTKKNSTFVRVHEKQLSLPSILPNENEKVVQLNSSFSLRCFGESEVSWQYPMSEEESSDVEIRNEENNSGLFVTVLEVSSASAAHTGLYTCYYNHTQTEENELEGRHIYIYVPDPDVAFVPLGMTDYLVIVEDDDSAIIPCRTTDPETPVTLHNSEGVVPASYDSRQGFNGTFTVGPYICEATVKGKKFQTIPFNVYALKATSELDLEMEALKTVYKSGETIVVTCAVFNNEVVDLQWTYPGEVKGKGITMLEEIKVPSIKLVYTLTVPEATVKDSGDYECAARQATREVKEMKKVTISVHEKG
# notes: the tag stands at the N-terminus; also called EPS1109P
# Target: T1, human VEGF165 ligand (human, UniProt P15692-4 27-191)
# T1 construct: also called VEGF-A165
# Assay: serial dilution mixed with 50 pM human VEGF165 in solution, unbound VEGF165 measured by ELISA
# Method: The amount of unbound VEGF₁₆₅ was then measured by a human VEGF-specific ELISA (Human VEGF DuoSet ELISA kit, R&D Systems, CAT. No. DY293B-05).
# Unbound human VEGF₁₆₅ or PDGF-BB was calculated using 4 parameters curve with the absorbance value. And the IC₅₀ of the tested fusion proteins and the reference was calculated using 4 parameters curve with unbound human VEGF₁₆₅ or PDGF-BB.
# T1 sequence (P15692 other isoform, or with tags, fused parts or gaps limits assumed): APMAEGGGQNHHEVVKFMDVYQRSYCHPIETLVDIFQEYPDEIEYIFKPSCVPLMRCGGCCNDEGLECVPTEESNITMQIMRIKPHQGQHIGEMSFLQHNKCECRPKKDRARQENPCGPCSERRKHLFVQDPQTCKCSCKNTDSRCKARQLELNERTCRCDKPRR
row,Binder,IC50
1,B1,331 pM
2,B2,646 pM
3,B3,506 pM
4,B4,440 pM
5,B5,869 pM
6,B6,218 pM
